In paper PMC5986797, “Laminin heparin-binding peptides bind to several growth factors and enhance diabetic wound healing” (Nature Communications, 2018):

What was measured:
Parameters in all cases: species or system human
Conditions in all cases: 1 µg/mL LG domain coated; 1 μg/mL GF; vs BSA-coated wells; n = 4
VEGF-A165 = assay: ELISA: VEGF-A165 binding to laminin LG domain / laminin peptide
Protocol: ELISA tests were performed as described above. In brief, […] recombinant protein, laminin alpha 4 LG domain recombinant protein (R&D Systems), laminin alpha 5 LG domain recombinant protein (LD BioPharma), or laminin peptide (sequences are described in Supplementary Table 1, chemically synthesized by Genscript) in PBS for 2 h at 37 °C. A concentration of 1 μg/mL of BSA served as non-binding protein control. After blocking with 2% BSA PBS-0.05% Tween 20 (PBS-T) solution, 1 μg/mL of the recombinant human proteins (VEGF-A121, VEGF-A165, PlGF-1, PlGF-2, PDGF-BB, or FGF-2) or 10 μg/mL of biotinylated heparin (Sigma-Aldrich) were added. Bound GF was detected with biotinylated antibodies for human VEGF-A, PlGF, PDGF-BB (R&D Systems, Catalog No. DY220, 1:180 dilution), or FGF-2 (R&D Systems). The antibodies were detected by streptavidin-HRP (R&D Systems).

VEGF-A121 = assay: ELISA: VEGF-A121 binding to laminin LG domain / laminin peptide
Protocol: (§1) ELISA tests were performed as described above. In brief, ELISA plates were coated with 1 μg/mL of laminin alpha 3 LG domain recombinant protein, laminin alpha 4 LG domain recombinant protein (R&D Systems), laminin alpha 5 LG domain recombinant protein (LD BioPharma), or laminin peptide (sequences are described in Supplementary Table 1, chemically synthesized by Genscript) in PBS for 2 h at 37 °C. A concentration of 1 μg/mL of BSA served as non-binding protein control. After blocking with 2% BSA PBS-0.05% Tween 20 (PBS-T) solution, 1 μg/mL of the recombinant human proteins (VEGF-A121, VEGF-A165, PlGF-1, PlGF-2, PDGF-BB, or FGF-2) or 10 μg/mL of biotinylated heparin (Sigma-Aldrich) were added. Bound GF was detected with biotinylated antibodies for human VEGF-A, PlGF, PDGF-BB (R&D Systems, Catalog No. DY220, 1:180 dilution), or FGF-2 (R&D Systems). The antibodies were detected by streptavidin-HRP (R&D Systems).

PlGF-2 = assay: ELISA: PlGF-2 binding to laminin LG domain / laminin peptide
Protocol: as §1

PlGF-1 = assay: ELISA: PlGF-1 binding to laminin LG domain / laminin peptide
Protocol: as §1

PDGF-BB = assay: ELISA: PDGF-BB binding to laminin LG domain / laminin peptide
Protocol: as §1

FGF-2 = assay: ELISA: FGF-2 binding to laminin LG domain / laminin peptide
Protocol: as §1

| Molecule | binding to VEGF-A165 (ELISA), recombinant LG domains (VEGF-A165) | binding to VEGF-A121 (ELISA), recombinant LG domains (VEGF-A121) | binding to PlGF-2 (ELISA), recombinant LG domains (PlGF-2) | binding to PlGF-1 (ELISA), recombinant LG domains (PlGF-1) | binding to PDGF-BB (ELISA), recombinant LG domains (PDGF-BB) | binding to FGF-2 (ELISA), recombinant LG domains (FGF-2) |
| --- | --- | --- | --- | --- | --- | --- |
| LAMA3_2928–3150: recombinant human LAMA3 LG domain Ser2928-Cys3150 (linker domain and LG4 domain), 6 His, HEK-293F (protein, left off: His6, N-terminal, state not stated, recombinant human LAMA3 LG domain Ser2928-Cys3150 (linker domain and LG4 domain), 6 His, HEK-293F) SLNKPPFLMLLKGSTRFNKTKTFRINQLLQDTPVASPRSVKVWQDACSPLPKTQANHGALQFGDIPTSHLLFKLPQELLKPRSQFAVDMQTTSSRGLVFHTGTKNSFMALYLSKGRLVFALGTDGKKLRIKSKEKCNDGKWHTVVFGHDGEKGRLVVDGLRAREGSLPGNSTISIRAPVYLGSPPSGKPKSLPTNSFVGCLKNFQLDSKPLYTPSSSFGVSSC | bound | did not show any binding | bound | did not show any binding | bound | bound |
| LAMA4_826–1816: laminin alpha 4 LG domain recombinant protein (R&D Systems) (protein) RSVASKIQVSMMFDGQSAVEVHSRTSMDDLKAFTSLSLYMKPPVKRPELTETADQFILYLGSKNAKKEYMGLAIKNDNLVYVYNLGTKDVEIPLDSKPVSSWPAYFSIVKIERVGKHGKVFLTVPSLSSTAEEKFIKKGEFSGDDSLLDLDPEDTVFYVGGVPSNFKLPTSLNLPGFVGCLELATLNNDVISLYNFKHIYNMDPSTSVPCARDKLAFTQSRAASYFFDGSGYAVVRDITRRGKFGQVTRFDIEVRTPADNGLILLMVNGSMFFRLEMRNGYLHVFYDFGFSGGPVHLEDTLKKAQINDAKYHEISIIYHNDKKMILVVDRRHVKSMDNEKMKIPFTDIYIGGAPPEILQSRALRAHLPLDINFRGCMKGFQFQKKDFNLLEQTETLGVGYGCPEDSLISRRAYFNGQSFIASIQKISFFDGFEGGFNFRTLQPNGLLFYYASGSDVFSISLDNGTVIMDVKGIKVQSVDKQYNDGLSHFVISSVSPTRYELIVDKSRVGSKNPTKGKIEQTQASEKKFYFGGSPISAQYANFTGCISNAYFTRVDRDVEVEDFQRYTEKVHTSLYECPIESSPLFLLHKKGKNLSKPKASQNKKGGKSKDAPSWDPVALKLPERNTPRNSHCHLSNSPRAIEHAYQYGGTANSRQEFEHLKGDFGAKSQFSIRLRTRSSHGMIFYVSDQEENDFMTLFLAHGRLVYMFNVGHKKLKIRSQEKYNDGLWHDVIFIRERSSGRLVIDGLRVLEESLPPTEATWKIKGPIYLGGVAPGKAVKNVQINSIYSFSGCLSNLQLNGASITSASQTFSVTPCFEGPMETGTYFSTEGGYVVLDESFNIGLKFEIAFEVRPRSSSGTLVHGHSVNGEYLNVHMKNGQVIVKVNNGIRDFSTSVTPKQSLCDGRWHRITVIRDSNVVQLDVDSEVNHVVGPLNPKPIDHREPVFVGGVPESLLTPRLAPSKPFTGCIRHFVIDGHPVSFSKAALVSGAVS | bound | did not show any binding | bound | did not show any binding | bound | bound |
| LAMA5_3026–3482: laminin alpha 5 LG domain recombinant protein (LD BioPharma) (protein) AIQVFLLGGSRKRVLVRVERATVYSVEQDNDLELADAYYLGGVPPDQLPPSLRRLFPTGGSVRGCVKGIKALGKYVDLKRLNTTGVSAGCTADLLVGRAMTFHGHGFLRLALSNVAPLTGNVYSGFGFHSAQDSALLYYRASPDGLCQVSLQQGRVSLQLLRTEVKTQAGFADGAPHYVAFYSNATGVWLYVDDQLQQMKPHRGPPPELQPQPEGPPRLLLGGLPESGTIYNFSGCISNVFVQRLLGPQRVFDLQQNLGSVNVSTGCAPALQAQTPGLGPRGLQATARKASRRSRQPARHPACMLPPHLRTTRDSYQFGGSLSSHLEFVGILARHRNWPSLSMHVLPRSSRGLLLFTARLRPGSPSLALFLSNGHFVAQMEGLGTRLRAQSRQRSRPGRWHKVSVRWEKNRILLVTDGARAWSQEGPHRQHQGAEHPQPHTLFVGGLPASSHSSKLP | bound | did not show any binding | bound | did not show any binding | bound | bound |
